Results reported in patent US20200147235A1 (AbbVie / Abbott, published 2020).

Legend:
[1] = biological target: T1, Human CD98 ECD with N-terminal His-tag (human, UniProt P08195 105-529); assay: SPR (Biacore), recombinant CD98 ECD
T1 construct: The entry includes the linker and the polyhistidine tag; also called huCD98 ECD
T1 sequence: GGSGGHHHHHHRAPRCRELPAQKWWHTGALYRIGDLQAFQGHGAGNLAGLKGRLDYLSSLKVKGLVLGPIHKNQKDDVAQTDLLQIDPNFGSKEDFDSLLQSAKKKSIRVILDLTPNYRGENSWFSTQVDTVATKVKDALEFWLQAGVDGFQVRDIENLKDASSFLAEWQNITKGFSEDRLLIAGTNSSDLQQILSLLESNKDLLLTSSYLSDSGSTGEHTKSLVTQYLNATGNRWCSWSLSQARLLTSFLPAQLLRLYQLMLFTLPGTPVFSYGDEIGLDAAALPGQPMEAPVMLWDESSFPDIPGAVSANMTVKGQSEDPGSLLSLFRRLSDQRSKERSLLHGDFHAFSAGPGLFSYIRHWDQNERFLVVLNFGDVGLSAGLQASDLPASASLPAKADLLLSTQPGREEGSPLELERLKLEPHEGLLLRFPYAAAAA

[2] = biological target: T2, Cynomolgus monkey CD98 ECD with C-terminal His-tag (SEQ ID NO: 127) (cynomolgus monkey, UniProt P08195 105-529 (human entry)); assay: SPR (Biacore), recombinant CD98 ECD
T2 construct: The entry includes the linker and the polyhistidine tag; also called cyCD98 ECD
T2 chain: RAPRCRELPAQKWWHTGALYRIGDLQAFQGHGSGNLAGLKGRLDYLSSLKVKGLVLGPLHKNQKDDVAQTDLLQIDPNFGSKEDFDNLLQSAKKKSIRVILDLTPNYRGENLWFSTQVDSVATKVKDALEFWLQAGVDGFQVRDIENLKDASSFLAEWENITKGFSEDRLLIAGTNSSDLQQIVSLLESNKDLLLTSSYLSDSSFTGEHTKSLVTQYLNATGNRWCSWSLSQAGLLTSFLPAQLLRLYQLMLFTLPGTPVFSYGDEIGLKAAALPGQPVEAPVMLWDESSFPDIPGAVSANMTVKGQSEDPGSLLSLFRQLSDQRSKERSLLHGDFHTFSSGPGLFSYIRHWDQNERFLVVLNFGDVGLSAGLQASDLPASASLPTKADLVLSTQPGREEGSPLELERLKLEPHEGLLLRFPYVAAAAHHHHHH

Row | Binder | Kd [1] [nM] | koff [1] [s⁻¹] | kon [1] [M⁻¹ s⁻¹] | Kd [2] [nM] | koff [2] [s⁻¹] | kon [2] [M⁻¹ s⁻¹]
1 | huAb103 (antibody, V domains shown, Framework re-engineered humanized clone (parent huAb3v2), expressed as full-length IgG; also called haAb103) VH: EVQLVESGGGLVKPGGSLRLSCATSGFTFIDYYMSWVRQAPGKGLEWLGFIRNKAYGYTTEYSASVKGRFTISRDNSKSILYLQMNSLKTEDTAVYYCTRDRPAWFVYWGQGTLVTVSS VL: DIVMTQTPLSLPVTPGEPASISCKSSQSLLYSSNQKNYLAWYLQKPGQSPQLLIYWASTRESGVPDRFSGSGSGTDFTLKISRVEAEDVGVYYCQQYYSYPYTFGGGTKVEIK | 3.4 | 0.00059 | 180000 | 14 | 0.00044 | 31000
2 | huAb102 (antibody, human IgG1, kappa, L234A L235A, V domains shown, Framework re-engineered humanized clone (parent huAb3v1); also called CL-huAb102) VH: EVQLVESGGGLVQPGGSLRLSCATSGFTFIDYYMSWVRQAPGKGLEWLGFIRNKANRYTTEYSASVKGRFTISRDNSKSILYLQMNSLKTEDTAVYYCTRDRPAWFVYWGQGTLVTVSS VL: DIVMTQTPLSLPVTPGEPASISCKSSQSLLYSSNQKNYLAWYLQKPGQSPQLLIYWASTRESGVPDRFSGSGSGTDFTLKISRVEAEDVGVYYCQQYYSYPYTFGGGTKVEIKR | 5.5 | 0.0018 | 330000 | 21 | 0.00068 | 32000
3 | huAb104 (antibody, human IgG1, kappa, L234A L235A, V domains shown, Framework re-engineered humanized clone (parent huAb3v2); also called CL-huAb104) VH: EVQLVESGGGLVQPGGSLRLSCATSGFTFIDYYMSWVRQAPGKGLEWLGFIRNKAYGYTTEYSASVKGRFTISRDNSKSILYLQMNSLKTEDTAVYYCTRDRPAWFVYWGQGTLVTVSS VL: DIVMTQTPLSLPVTPGEPASISCKSSQSLLYSSNQKNYLAWYLQKPGQSPQLLIYWASTRESGVPDRFSGSGSGTDFTLKISRVEAEDVGVYYCQQYYSYPYTFGGGTKVEIKR | 2 | 0.00091 | 450000 | 14 | 0.00048 | 34000
4 | huAb107 (antibody, V domains shown, Framework re-engineered humanized clone (parent huAb15v2), expressed as full-length IgG) VH: EVQLVESGGGLVQPGGSLRLSCAASGFTFSDYTMAWVRQAPGKGLEWVATIIYSGRGTYYRDAVKGRFTISRDNAKNTLYLQMNSLRAEDTAVYYCARQSDDTYYYWGYFDYWGQGTMVTVSS VL: DIVMTQTPLSLPVTPGEPASINCKSSQSLLFSGNQKNYLAWYLQKPGQSPQLLIYWASTRQSGVPDRFSGSGSGTDFTLKISRVEAEDVGIYYCQQYYDVPYTFGQGTKLEIK | 0.33 | 3.8e-05 | 110000 | 2.7 | 8.7e-05 | 33000
5 | huAb105 (antibody, V domains shown, Framework re-engineered humanized clone (parent huAb15v1), expressed as full-length IgG) VH: EVQLVESGGGLVQPGGSLRLSCAASGFTFSDYTMAWVRQAPGKGLEWVATIIYSGRGTYYRDAVKGRFTISRDNAKNTLYLQMNSLRAEDTAVYYCARQSDHTYYYWGYFDYWGQGTMVTVSS VL: DIVMTQTPLSLPVTPGEPASINCKSSQSLLFSGNQKNYLAWYLQKPGQSPQLLIYWASTRQSGVPDRFSGSGSGTDFTLKISRVEAEDVGIYYCQQYYDVPYTFGQGTKLEIK | 0.17 | 2.4e-05 | 140000 | 1.4 | 5.3e-05 | 38000
6 | huAb109 (antibody, V domains shown, Framework re-engineered humanized clone (parent huAb15v6), expressed as full-length IgG) VH: EVQLVESGGGLVQPGGSLRLSCAASGFTFSDYTMAWVRQAPGKGLEWVATIIYDARGTYYRDAVKGRFTISRDNAKNTLYLQMNSLRAEDTAVYYCARQSDDTYYYWGYFDYWGQGTMVTVSS VL: DIVMTQTPLSLPVTPGEPASINCKSSQSLLFSGNQKNYLAWYLQKPGQSPQLLIYWASTRQSGVPDRFSGSGSGTDFTLKISRVEAEDVGIYYCQQYYSSPYTFGQGTKLEIK | 1.1 | 0.00017 | 160000 | 12 | 0.00031 | 26000
7 | huAb106 (antibody, V domains shown, Framework re-engineered humanized clone (parent huAb15v1), expressed as full-length IgG) VH: EVQLVQSGAEVKKPGASVKVSCKASGFTFSDYTMAWVRQAPGQGLEWVATIIYSGRGTYYRDAVKGRFTITRDNSTSTLYLELSSLRSEDTAVYYCARQSDHTYYYWGYFDYWGQGTMVTVSS VL: DIVMTQTPLSLPVTPGEPASINCKSSQSLLFSGNQKNYLAWYLQKPGQSPQLLIYWASTRQSGVPDRFSGSGSGTDFTLKISRVEAEDVGIYYCQQYYDVPYTFGQGTKLEIK | 0.16 | 2.2e-05 | 140000 | 2.2 | 9.5e-05 | 43000
